Experimental data: article PMC12435574

Columns and labels:
[1] = confocal immunofluorescence (LSCM), HCT116; settings: glycan lost; control: wild type
[2] = immunofluorescence co-localisation with calnexin and GM130; settings: glycan lost; control: cells without S76A mutation
[3] = confocal co-localisation with phalloidin, calnexin, GM130; settings: glycan lost; control: untreated

Protein	other: collagen I secretion by cells [1]	other: response of collagen I secretion/procollagen transport to kaempferol or OGT knockdown [2]	localisation_or_trafficking [3]
Hsp47: S76A (protein) parent chain: MRSLLLLSAFCLLEAALAAEVKKPAAAAAPGTAEKLSPKAATLAERSAGLAFSLYQAMAKDQAVENILVSPVVVASSLGLVSLGGKATTASQAKAVLSAEQLRDEEVHAGLGELLRSLSNSTARNVTWKLGSRLYGPSSVSFADDFVRSSKQHYNCEHSKINFRDKRSALQSINEWAAQTTDGKLPEVTKDVERTDGALLVNAMFFKPHWDEKFHHKMVDNRGFMVTRSYTVGVMMMHRTGLYNYYDDEKEKLQIVEMPLAHKLSSLIILMPHHVEPLERLEKLLTKEQLKIWMGKMQKKAVAISLPKGVVEVTHDLQKHLAGLGLTEAIDKNKADLSRMSGKKDLYLASVFHATAFELDTDGNPFDQDIYGREELRSPKLFYADHPFIFLVRDTQSGSLLFIGRLVRPKGDKMRDEL	decreases	abolishes	
Hsp47: OSMI-1 (protein) parent chain: MRSLLLLSAFCLLEAALAAEVKKPAAAAAPGTAEKLSPKAATLAERSAGLAFSLYQAMAKDQAVENILVSPVVVASSLGLVSLGGKATTASQAKAVLSAEQLRDEEVHAGLGELLRSLSNSTARNVTWKLGSRLYGPSSVSFADDFVRSSKQHYNCEHSKINFRDKRSALQSINEWAAQTTDGKLPEVTKDVERTDGALLVNAMFFKPHWDEKFHHKMVDNRGFMVTRSYTVGVMMMHRTGLYNYYDDEKEKLQIVEMPLAHKLSSLIILMPHHVEPLERLEKLLTKEQLKIWMGKMQKKAVAISLPKGVVEVTHDLQKHLAGLGLTEAIDKNKADLSRMSGKKDLYLASVFHATAFELDTDGNPFDQDIYGREELRSPKLFYADHPFIFLVRDTQSGSLLFIGRLVRPKGDKMRDEL			changes
